A protein production outcome set (Wang et al. 2014)

Test: label from the status in PepcDB records

Sequence: SRRRRSGTEPEKIEPGEGASRSRRDMLKDGGQQGLGTGARDPDKATRFRMEELRLTSTTFALTGDSAHNQAMVHWSGHNSSVILILTKLYDYNLGSITESSLWRSTDYGTTYEKLNDKVGLKTILSYLYVCPTNKRKIMLLTDPEIESSLLISSDEGATYQKYRLNFYIQSLLFHPKQEDWILAYSQDQKLYSSAEFGRRWQLIQESVVPNRFYWSVMGSSKEPDLVHLEARTVDGHSIYLTCRMQNCTEANRNKPFPGYIDPDSLIVQDDYVFVQLTSGGRPHYYVSYRRSPFAQMKLPKYALPKDMHVISTDENQVFAAVQEWNQNDTYNLYISDTRGVYFTLALENVQSSRGPEGNVMIDLYEVAGIKGMFLANKKIDNQVKTFITYNKGRDWRLLQAPDADLRGDPVHCLLPYCSLHLHLKVSENPYTSGIIASRDTAPSIIVASGNIGSELSDSDISMFVSSDAGNTWRQIFEEEHSILYLDQGGVLVAMKHTSLPIRHLWLSFDEGRSWSKYSFTSIPLFVDGVLGEPGEETLIMTVFGHFSHRSEWQLVKVDYKSIFDRRCAEEDYRPWQLHSQGEACIMGAKRIYKKRKSERKCMQGKYAGAMESEPCVCTEADFDCDYGYERHSNGQCLPAFWFNPSSLSKDCSLGQSYLNSTGYRKVVSNNCTDGVREQYTAKPQKCP
- protein production: not failed

Sequence: SRVLSRMSGTIRHFQAITLALSRERDLERMLDGVLSHLVEAAGGDAGGVYLYDAEQALLRLAASCRGEHYPSELAVDESARQHLAATVTQALSLHERSLAVVLNDRSQALLGILVLQMGEEQAQERVGEAFRRFVEELSGVAAVAIETRQLVEAQQRLLDA
- protein production: failed

Sequence: SSEDLAKQLASYKAQLQQVEAALSGNGENEDLLKLKKDLQEVIELTKDLLSTQPSETLASSDSFASTQPTHSWKVGDKCMAVWSEDGQCYEAEIEEIDEENGTAAITFAGYGNAEVTPLLNLKPVEEGRKAKEDSGNKPMSKKEMIAQQREYKKKKALKKAQRIKELEQEREDQKVKWQQFNNRAYSKNKKGQVKRSIFASPESVTGKVGVGTCGIADKPMTQYQDTSKYNVRHLMPQ
- protein production: failed

Sequence: SSEQIRRAPKVLLHDHLDGGLRPGTIVELARDAGYSGLPETDPDKLGIWFREAADSGSLERYLETFAHTCAVMQTRAALVRVAAECAEDLAADGVVYAEVRYAPEQHLEAGLSLEEVVEAVNEGFRAGERRAKEDGNRIRVGALLTAMRHAARALEIAELANRYRDAGVVGFDIAGAEAGFPPTRHLDAFEYLKRENNHFTIHAGEAFGLPSIWQALQWCGADRLGHGVRIIDDIQVREDGSVKLGRLASYVRDKRIPLELCPSSNLQTGAASSYADHPIGLLRRLHFRATVNTDNRLMSGTSMSREFEHLVDAFGYTLDDMAWFSVNAMKSAFIPFDERLAMINDV
- protein production: failed

Sequence: SSLRPSPRLLCTATKQKNSGQNLEEDMGQSEQKADPPATEKTLLEEKVKLEEQLKETVEKYKRALADTENLRQRSQKLVEEAKLYGIQAFCKDLLEVADVLEKATQCVPKEEIKDDNPHLKNLYEGLVMTEVQIQKVFTKHGLLKLNPVGAKFDPYEHEALFHTPVEGKEPGTVALVSKVGYKLHGRTLRPALVGVVKEA
- protein production: failed

Sequence: SSPFPIPNTQYPISNPQFNRWLVPMAGGPNARIAIKLLPALVTLSDDPQIRLTRVFKPWEFRPDMTVLEQAIRQLMRRRQLSSTVIAAPVQADSVVEGVIKLVETEGYDVVVLGASREGLLQQAIQGNIPEAIASGVDSTVILVR
- protein production: failed

Sequence: SSSDIAYIYVNNKKSYLKDKKVRQALTYGLDRKKYVDTALQGYGSVANVPIAPVSWAYTEEGINKYPHDVEKAKKLLDEAGWKVGSDGVREKDGQKLKLTYYASNTGKTNDIFIPIAKESYKEIGVELNPELMDFNTMLSKVGKGDYDLAAVSTPGISDPSEVVSDYLSTNPKSDTGYSNPKVDDLIVKGIGTTDIEKRKAIYKELYKELSDDPPVILLNYRK
- protein production: failed

Sequence: STGKKPKHHVLSHDIIPASKPIAEKLQIQPESPVVELKRILYNDDQPLTFEVTHYPLDLFPGIDTFIADGVSMHDILKQQYKVVPTHNTKLLNVVYAQQEESKYLDCDIGDALFEIDKTAFTSNDQPIYCSLFLMHTNRVTFTINSPYT
- protein production: not failed

Sequence: STISILATSDIHGNVLNYDYATGKAPTNTQGLAKVSSYVNSVRASKPNVMLIDDGDTIQGTPLSYYYDKIDTTSEYPLMKIMGAMKYDTWTLGNHEFNYGLPTLNRVISDARKENINVLSANTYNSDNTNFVNPYYIKTFNINGKTVNVGILGLTTKCIPDWEDPSHYAGLHFNDLVDEAKLWVPRMKAAGANVVIVAAHSGEEGAADTIPENQIKAIATNVSGIDAIVAGHAHVTVNDTSLKNPNGKTVPVVEPNKWGTFVSQIDITLDNSGNASTINTQNVKMTDSIPEDPNIVNIIQPYQNKTLDYIST
- protein production: failed

Sequence: STSPEIASLSWGQMKVKGSNTTYKDCKVWPGGSRTWDWRETGTEHSPGVQPADVKEVVEKGVQTLVIGRGMSEALKVPSSTVEYLKKHGIDVRVLQTEQAVKEYNALVAQGVRVGGVFHSTC
- protein production: not failed

Sequence: SVDLAHIRQVRAEADCLFNNDEVEAAIGRVAEAINRDLGETNPVVFCVMNGGLIFSGKLLPLLDFPLELSYLHATRYRNETSGGELFWKAKPEISFIDRDVLIIDDILDEGHTLSAIIDFCKHAGARAVHTAVLVDKEHERKARPDLKASFTGLYCADRYVFGYGMDYKGYWRNA
- protein production: failed

Sequence: SVNAATVDLRIMETTDLHSNMMDFDYYKDAATEKFGLVRTASLIEQARAEVKNSVLVDNGDVIQGSPLGDYMAAKGLKEGDVHPVYKAMNTLNYAVGNLGNHEFNYGLDFLHKALAGAKFPYVNANIIDAKTGKPMFTPYLIQDTRVVDSDGQIHTLRIGYIGFVPPQIMTWDKANLNGKVTVNDITETARKYIPEMRAKGADVVVVVAHSGLSADPYQAMAENSVYYLSQVPGVDAIMFGHAHAVFPGKDFANIKGADIAKGTLNGVPAVMPGMWGDHLGVVDLVLNNDSGKWQVTQSKAEARPIYDAVAKKSLAAEDGKLVSVLKADHDATREFVSK
- protein production: not failed

Sequence: SWLYGKSDARWTITEYADLECPYCRTYTPQLMQWIDGQTDVNLVWHHFPLQMHGAATLKEARLVQCAGKLGGGKAFWNAIDQVLKHTRGDGQGLVTSIALSGIDAVVLDRCATLDADVALHVDQQLQLAQQAGVTATPTIKITDTQTRHSVRLEGPVDEVSILSAMDRLAFESK
- protein production: failed

Sequence: SYETSQHNLDAVEAVLSRLQKQTGEMAAYMVPVGYRALCVSQRESMQALRCSFVQGQSQPLLRGASSKVMLAYMPAARCEKILRYFGEDPTLDKWQSEFEKIRRHGYAVSTSEIDPGVSGISAPVMKGSKLIGAISVMAPAHRVESNKQRIILHVLQAARAL
- protein production: not failed

Sequence: SYTEVRELVNFVCRYLFGHIPRRPVGIFGAELGNYLVSHFSSTWDVHHPKNGEMKRMINTTTSLCFASSAEEAGVPPSDVLRLLPTNMIIFANPGHVFVRLSENGIETPIWIGDVNCDENYQSVPEYVVRTAAIRAEPCSNLGAAGKSVLVGKKPLLTNDKAALEMVNTMYSPLAREKCDDINANLSHLREMYPFRFVYKPSSAQTFSGVEFSQTRFGSSKSRPDLQTMDVIKYLSSQQVSSSSSPSFTYSSINDQMRYSPRF
- protein production: not failed

Sequence: SYTFDTTDHKSPCCNFQWYIFRKQGESRIITCELFGVIVSLENRWDWLEFMIDDSLQLTAFRCPKRDKLGMETLLQLGDVAQVTGNWKLSNGAFLNATKIAIHNNPDVECKYWLQQIQKYKSKVCELEIPSDWIRRQQRAHNLKTDAVLSFSAQVSTAAATCWKLWKKHFNQGGKISLQRLWEVIQRENCPKMQELSSCRRNQIVQLLIHLGYLIPLSKEPETYVLLIDDILDKQVMQIFNQNIASKTLSLREVAYRLEEYFHVEEISLERVEESILRLAYKEKVEQV
- protein production: not failed

Sequence: TAANAVASRVGAPLGHDYAVLSLSDRLKPWDVVAQRISAVASADMAFAVYNPASKSRTWQVAAMRDLVLEHRSPDTPVIIGRDVAGAQESVRVVRLADLDPAEIDMRCLLIVGSSMTTVVENEHGTRVFTPRRYPG
- protein production: failed

Sequence: TACKGDYKDAARQVRCGTLVVDETRGDPKSRRITVAVAIVKASEPKAGQPPVVYLHGGPGGSAVGGLPRMLKSKAALEYVAVDQDWIFIDQRGGGQSDPNLDCPGANLTDAGPPSDKDAQAIIACMKAFQAKGVNLSRYNAVEVAKDVQDLRKLLKLPLIDLYGGSYGTRIEAAIQTHAAEGVRAVVQDSPWPPEADWTVGGPAMVSSSIDIVMAKCAKVAECAKRYPDLKAKLAVVAERWLAGPQTINGKTYTADDLGGWLMDASYFTASVLPRDLWKIIEGDVSPVAEFVESRDYYSEGQFMTHLCKEEIPFEARAAVADGTQKDPIARLMVASMQRIHDVCAAIDVGPINKVEQAPVKTAIPTLFLAAEIDPGCPPELTRAAAKGYQGSQVVIVTNATHGVSRSSPCVRKMIRSFFQDPTKPVDRSCLPAADTPMAFMYQ
- protein production: failed

Sequence: TAEEVVTVALRCPSGNVLRRRFLKSYSSQVLFDWMTRIGYHISLYSLSTSFPRRPLAVEGGQSLEDIGITVDTVLILEEKE
- protein production: failed

Sequence: TDGEGEDPAEYPTVNHKIEKAIEVTKTGLEEYENPVVMWTGGKDSTLTLYFVKEVAERFDLEVPPVVFIDHYQHFDELIDFVEHWADEWDLDVIWARNEDVGNYVDENGLEPGDDIPVDELSEHNQHHIRNILEYEEDTFPFLLDTYVGNHLLKTVALNDTIEEHDVDGILSGIRWDEQESRADETFFSPRHDPDIYPPHDRIQSILQFAEADVWEAFWNFVVPDTVEGYPDEGYVPQGQDDLPEGIEKEDVPVSPKYFAGFRSLGSE
- protein production: failed

Sequence: TDLPMPRVTVFALWEPLAIMRELWAEGGIGPGRLAVMDRVKGPKTGLLMRHQDKPGGVAFVAIHDGVAMLHALEIPPHQRRKGLGKWAMRGAAFWALDNGAHTLSVICTKANEGANALYRSLGMQLVGEYHYRLLQE
- protein production: failed

Sequence: TELQAVTGRAEIAGERLKLLYDAGLGIGTTLDVLRTADELAQVAVPRFADFVTVDLADAVLHGEEPAPTATDLRRTAVCGIRDDHPLYELGQLIDFLPSTPQARGYGSGYSELVTDLSTATGWHAQDPERTKAIIDYGIHSLIAAPIQARGVVLGMANFWRSKQHEPFVEEEMSLAEELVARAAVSIDNARRYTREHALAVTLQRSLLPRALP
- protein production: failed

Sequence: TGEREYIKKLEPMLKELGWWGKAKDENGNEVQLGSPRRLRTILRTNKITAYHAARYAQQMENVDEQPYWRYVAVNDSRTRASHLALHGKIYRADDPIWQTMYPPNDWGCRCRVEALS
- protein production: failed

Sequence: THSETITIPVFDTQVAGTLLTPRAKLPGVLFVHGWGGSQRFDLSRARDIAGLGCICLTFDLRGHAATEAQRRQVTREDSLRDIMAAYDALIAHPAVDTSAIAVVGSSYGGYLAAILTTLRAVRWLALHVPALYRDDEWAQPKLQLDRAAISAYRHATVAPEGNRALSACSSFRGDVLIVEAEHDDYIPHSTIMSYRGAFLHSHSLTHRIVDGADHALSDKRCQQAYSSILLNWATEMV
- protein production: failed

Sequence: TIDIDLQKKVESLLEKQISKLRSQGAKDMDNALMVVQNPKNGDILAIAGKQIDKQGKLKDYDIGNFTAQYTVGSSVKGGTLLAGYQNKAINVGETMVDEPLKFQGGLTKRSYFNKNGHVSIDDKQALMHSSNVYMFKTALKLAGDPYTSGMSLPNNIADAGRKLRKGLNQVGLGLKTGIDLPNETPGQIEPLTNNPGNYLDLAIGQYDTYTPLQLSQYVSTIANDGYRIQPHIGLSIYESTNKDETGPLKRKIKGNVLNKVNNSNDEIKEVQEGFKMAFNEKQGTGYASFRNTVVPSAGKTGTAEVFQDGEPRVNSTYIGYAPVDDPKLSFSIVYTNQPVPPPWLNGGDLGRDVINYYFKDKDNKKDDSQSNNEEKED
- protein production: failed
